Results from the DeepSol protein solubility set.

Assay: soluble on expression in E. coli; label from the status in PepcDB or PDB records

| Sequence | soluble on expression in E. coli |
| --- | --- |
| MSLCDYLERSAKKFPEKVAVQGVRLGHIEAITYAELNTFSDRFSEFLRAQGVTRGEFIPFFMFKEIDSIKSIFSILKADCAYVPLDCKSPEGRLLSIIKSCKAKFIIVNERSESLAERVFSAIPTLKIINISEFVSDTAFVFSASLNISVDLAYVLFTSGSTGTPKGVMISHQAIIDYIGWCTETYNITAIDHVSNHAPLYFDNSTFDIYTSMAAGATLHLVPEEFNVMLPRLIDWIEDNRISIFFCVPSILTLMLQTGRLRTERFVELKHLICAGEVLPTTTAKKILGLFPHLQLTNMYGPTEITVDCTYHVIREADVTSSTSIPIGKPRRNMQLMVLTDDGAVTNERGAIGELMVRGSSVSYGYLDNYAKTQEAFVQNPAHSLYPDMVYKTGDRVTIGEEGLYYYCGRLDNQIKHLGYRIELGEIEANALLLDTVLEAVAVYRSSTSMFESAICMAVKTTVPTDVRTLRAALTSVLPPYMIPGHFVFLDSDFPRTPNGKYDRASILGLFVEGHHHHHH | not soluble |
| TTGNEPPVTQIVDKHRIALALGGGAARGWAHIGVLRALDEAGVKIGMIAGTSIGALVGGCYLAGKLDELEEFARSLTMRRIAGLLDLTIGGGGLFGGMRLTKRMQEHLEGLRVENLEHPFIAVATELRTGHEVWIHQGDLVTALRSSYALPGIFEPVQCNGRTLIDGALVNPVPVSVCRAYEQALVVAVNLNYDLFGRSA | not soluble |
| GARNSVLRGKKADELERIRLRPGGKKKYRLKHIVWAANKLDRFGLAESLLESKEGCQKILTVLDPMVPTGSENLKSLFNTVCVIWCIHAEEKVKDTEGAKQIVRRHLVAETGTAEKMPSTSRPTAPSSEKGGNY | soluble |
| MDPNQPVKFTEFMPDSGGIRTKFIVKGSNFGEDKSQVKVYFKDEVGNEREALVLGVKPDVIYAQVPKQAGGESHVRVEIAGKEAELSNAEKTFKYIVTSSVSTVVGKAKEGGNKDGTLGETTFNTPRYVAVDNDDNVFIFDSDGRTRLSSIEQNKTITLLDGMVIDQPLFIDKEKKQLFGPCDNANFGCFLFDANVSWVADKMGQLLANGGWMHSVVLDPVDSTFVIYRQNTGQLWTQPFDKNRRTLNPNKAKRIGTLYNTGSNGLCAYNPVDKYVYCVLHSKSAVYRFKLTRDADGWPALDGDIDEYIPGAGAGFRDGDVQEAQFKEPRGIAIDKEGNLYIADVGNNRIRKVDTKLNVVTTIAGSGAAGYKDGDPLEAQFNQPWGVYLDKNEFLYIADQNNHCIRKLAIELEHHHHHH | not soluble |
| MGSDKIHHHHHHMGTDPIEARFEQLNVWRNGDKRAPHKPLLILLALASWQRGAREMRFAECEQKLGELIREFGPAAKAVHPEYPFWRLQNDGLWVVEADQEMRTRQSNSDPLKSELRAAGARGHFFADVAEELERRPALIGRVAQRVLDAHFPETLHEDILAAVGLEVSEETESTTRRRRDPNFRNAVLQAYQYRCAVCELDLRIGSITVGLEAAHVKWHQARGPDAVHNGVALCSLHHKLFDLGAFHIGADRRILVSEQVHGTSRFEEVLLRHHGALALEPVRSEHKVLRDFVGWHFDQVFKKEARPAT | not soluble |
| MEPTGMMVAAPTASLPEAIGGERNWDYRYTWIRDTAYVIEALATIGYKREAVSFLYDMMDVISRENKIRTIYSIDNSDDFVERELDFEGYRGSRPVRIGNKAVDQLQIDQYGSIVRAIHAMEKAGGVVNSYLWDFVEEMMAKIEYLWKYPDSSIWEFRTEPKQYVYSKVMSWAAFDSAITMARDLGLTAPIKKWKGIQDEIWNDVMTKGFDPQTNSFVQYYGSKNVDASLLRLPILGFIPANDERFIGTMKRIEDELMVDGYLFRRYREDDGLKGDEGSFLMLTFWYIEDLILMKRLKAARAALESIIEKANHLGLYSEEIDEKTGDFLGNFPQALSHLGIIRVAPKLEEAFLKRVSKINELEHHHHHH | not soluble |
| MPLEASELKPTAGPLEASELKPTAGPLEASELKPTAGPLEASELKPTAGPLEASELKPTAGPLEASELKPTAGPLEASELKPTAGMEKTKKIAVMSGKGGVGKTTVAVNLAVALAAEGYQVGLLDLDLHGPNVQRMLGVSLPPSEGEKIVPAKYGDSLKVFSLAMILQEGAPVIWRGPLKHKAIEQLTRDVEWGDLDYLICDLPPGTGDEALSTFQIIKPDAVIVVSTPQKVAGDDVRRAINFVKRLSGKILGLVENMSYLVCPNCGEKIYVFGKGETEKLAEEFGIPLIARIPMDPEVVSLSDEGRPAVVYKRGTVIEEEFKKIVEKVLSLLEHHHHHH | not soluble |
| MKKKKLFLGTIISCVVLALSACGSSDNVVTSKVGNITEKELSKELRQKYGESTLYQMVLSKALLDKYKVSDEEAKKQVEEAKDKMGDNFKSTLEQVGLKNEDELKEKMKPEIAFEKAIKATVTEKDVKDNYKPEMKVSHILVKDEKTAKEVKEKVNNGEDFAALAKQYSEDTGSKEQGGEITGFAPGQTVKEFEEAAYKLDAGQVSEPVKTTYGYHIIKVTDKKELKPFDEVKDSIRKDIEQQRLQDTTGKWKQQVVNELLKDADIKVNDKEFKNTFEFLEKK | not soluble |
| AHHHHHHGSAESPFKADIERAQKELSEKMTPGAIVYIPGSSVINKTGSWRVFKPEFNRDKCVRCYLCYIYCPEPAIYLDEEGYPVFDYDYCKGCGICANECPTKAIEMVREVK | not soluble |
| AMKNYYSSNPTFYLGIDCIIFGFNEGEISLLLLKRNFEPAMGEWSLMGGFVQKDESVDDAAKRVLAELTGLENVYMEQVGAFGAIDRDPGERVVSIAYYALININEYDRELVQKHNAYWVNINELPALIFDHPEMVDKAREMMKQKASVEPIGFNLLPKLFTLSQLQSLYEAIYGEPMDKRNFRKRVAEMDFIEKTDKIDKLGSKRGAALYKFNGKAYRKDPKFKL | soluble |
| MAMTGVLRPGHAQVRVLNLEEGIHFYRNVLGLVETGRDDQGRVYFKCWDERDHSCYIIREADTAGIDFFGFKVLDKATLEKLDADLQAYGLTTTRIPAGEMLETGERVRFELPSGHLIELYAEKTCVGNGISEVNPAPWNAQREHGIAPIQLDHCLLYGPNIAEVQKIFTEVLGFYLVERVLSPDGDSDMGIWLSCSHKVHDIAFVEYPEKGKLHHCSFLLESWEQVLRAGDIMSMNEVNVDIGPTRHGVTRGCTIYAWDPSGNRFETFMGGYHPYPDYEPLSWTYDNFAQGLDYPQRKLHETFMTVVT | soluble |
| MSLKSYGAVKRISGKNRYVLSENIAKQMGSYDKAIVVTGRVFQDALAIAPYAAAHGYPILLTEKDKLPDYDLPKQVIIIGSSFSVSDSVENQIKKTSEGHHHHHH | soluble |
| MGSDKIHHHHHHMRENSDVLANSGFRQSVEVQIKDKQSYKRLNMTLVGQQHPDYLILELSRQYCWQDILPMLATEKNVAIKTVSPKGEQVTGVVDILHITQYPQKLLFVSYPRNASVEILRSSPRVGVNCDARLQLQLKDKLGEPLTGKIVDISNKGIAFNYFGTSPVNIEDSRGLEAEVRVKTDDETILLQQLITRSIRSVGPQLWQLGLSYKEKPNNLQDLVSKLFLHSTPVRELLSDNDPGWDASDNTLQGESESVQFSTN | not soluble |
| MGSDKIHHHHHHMFFETTFHDATEQEASLPGWRQEYRQVSTGGYDGRTMAILLPGVEILRETISVGTEQMFSAPEGSMIFYYYPKRDRSELVRGEKATGVSGFALNWTNRIGFMDADSDLLMLVLRRDAVADEDRSRIAELVEPPLENAAFLADWLLSLLGGARQQSHPCAWGKFDGVLADVITDRFELLFQKSLVRQTPHIAQTEQIYRKIRDRIFDAPDMPHSVKSLSRDLGVSAFNLRASCQSFTQIPLDRILMMLRLNGARRDLLHARCSPRKVSDIAMDWGFFHWSRFALRYKSLFGETPSQTLKG | not soluble |
| FEPDDVTEDVIEWVYSTFDGSYDEQPFGGDWTDPEPFRWPVTRRQAVQALDHFVTNRLTEFGSYQDAMLEDEWAMSHSLLSTSLNLGLLGPAEVIERAITAYEDGDAPLNSVEGFIRQVLGWREFLRHVYRREM | not soluble |
| MAEDGPQKQQLDMPLVLDQDLTKQMRLRVESLKQRGEKKQDGEKLLRPAESVYRLDFIQQQKLQFDHWNVVLDKPGKVTITGTSQNWTPDLTNLMTRQLLDPAAIFWRKEDSDAMDWNEADALEFGERLSDLAKIRKVMYFLITFGEGVEPANLKASVVFNQL | soluble |
